Data: the RNAGym collection of RNA variant scans (doi:10.1073/pnas.2313332121)
Variants at the floor of the assay were thinned out.

B1: TPR 5TU (parent)
chain: GGAUCUUCUCGAUCUAACAAAAAAGACAAAUCUGCCACAAAGCUUGAGAGCAUCUUCGGAUGCAGAGGCGGCAGCCUUCGGUGGCGCGAUAGCGCCAACGUUCUCAACUAUGACACGCAAAACGCGUGCUCCGUUGAAUGGAGUUUAUCAUG

Variants of: B1
Test: polymerase ribozyme fitness, log enrichment relative to wild type (log ratio); higher = more active; in vitro selection for triplet polymerase activity
Procedure, shortened: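 PCR was used to build mutant libraries for each subunit of a heterodimeric triplet polymerase ribozyme, which were then transcribed. A single in vitro selection round, in triplicate, used a frozen incubation at −7 °C and recovered extended constructs by gel excision, streptavidin beads and RT-PCR. Fitness is the logarithm of genotype enrichment relative to wild-type enrichment, averaged over replicates with inverse-variance weights. The logarithm is base 2, and after Illumina sequencing only genotypes with ≥10 input reads and ≥1 read per output were kept.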

Variant | polymerase ribozyme fitness (log ratio)
U9G A12C A16U U31A G62A G71A G80C C87U C108U | ≤ -4.2
G59U G88C C116G | -3.85
C85U U130G | -3.71
C5G C87U | -0.787
A49U G50C G65C A97U U101G C129G G143U | ≤ -4.2
G42C C105G | ≤ -4.2
C54U C75G G80C U82A C87U C99G | ≤ -4.2
U6A G80C G94A | ≤ -4.2
A16G G80C G81A A97G U102C G136C C149U | ≤ -4.2
G84U G86A C93U C123U | -1.15
U53A G83C G94U A97G U101G U102G C116A G140U | ≤ -4.2
C95U C114U | -1.72
A12C U15A U56A | -0.709
C79G G88C G92A C125G | ≤ -4.2
C43A A66G U77A A97G U146A | ≤ -4.2
C76A C85A A138G U145C | ≤ -4.2
U53G U135C | -3.23
C116G A119U | 0.403
A41U C54G G88C U130A | ≤ -4.2
G46U A52G C93G | -4.03
C8U U82G C87A | ≤ -4.2

Variant | polymerase ribozyme fitness (log ratio)
G50C C96A | -3.01
A3U C38A C87U C95U G128C | ≤ -4.2
A3U A19U C57U G62U C69U C85U C99G U130C G136U U146G | ≤ -4.2
U31G U56A G136A A147C | -0.143
U82G C96U | -2.13
C87A C125U A137U | ≤ -4.2
C8G C93U | -3.64
A41C C57A C96U | -0.533
G50U U102G | -2.92
U61A A142G | -1.25
A24G A52C C85U C96U C105U A120U G136A | ≤ -4.2
A16G U45A C72U C93G U151A | ≤ -4.2
A49C G141C | -4.14
A20U G92A A121U G141C | -4.03
A19C U55A C123G C125A U148G | ≤ -4.2
U15G C54U A60U C75G A113G | ≤ -4.2
A21U G25C A29U U33A A37U A66C G70C G88U G124U | ≤ -4.2
C8G G50C U55C G100A A115G U127C | ≤ -4.2
U45A C69A G88C A97C C125G | ≤ -4.2
A12U C51U | -2.53
C85A A107U A147C U151C | ≤ -4.2

Variant | polymerase ribozyme fitness (log ratio)
U44G U135A | -3.83
A41C G65A C93U G94U C103G | ≤ -4.2
U55A C57U A66C G94A A106G G128U G140A | ≤ -4.2
C5U C38U C63A U77A C95U U127G G136U U144C | ≤ -4.2
A37C C96U G100C U102C C118G C131G | ≤ -4.2
C14A U44A G81A C85A U102G | ≤ -4.2
G11U C14G G34U G84U C125G C149G | ≤ -4.2
C51U U78G C96U | ≤ -4.2
C93G A150G | -4.14
C43A C63U U90A | ≤ -4.2
C38U G94U | -0.0168
A28C C54G C79G C85G U145A | ≤ -4.2
A16U A47U U55A C87U | -2.97
C5A U6A G94U C123U U148G | ≤ -4.2
A29U A137G | ≤ -4.2
A17G C95U G141A | 0.672
C8G A23U A30U G42C G83C A97U | ≤ -4.2
A24C A73G G83C G143U | ≤ -4.2
A12G G80A C118U A119C A120G G143U | -3.12
A19G G67C G124U | ≤ -4.2
G84A A97G C129A G152A | -4

Variant | polymerase ribozyme fitness (log ratio)
C32U C96G A142U | -3.35
G50C C57A A66C C85G | ≤ -4.2
C27U A41G A47C U53A U78C C93A A110U | ≤ -4.2
C75G G92U C103G A122C | ≤ -4.2
C18G A19U A23C G67C G126A G143U U144C | ≤ -4.2
A40U A89C C114U | -2.95
A41G G50C C125U A142G | -3.92
C51A C99G | -4.07
C18G C27U A37G A47C U55A G65U C85U | -4.19
C27G A28G C69G C93G C95U | ≤ -4.2
C10U U53A | -2.96
C27G C38A C54U G92U U134G | ≤ -4.2
A16U A60C U61A A66C | ≤ -4.2
A41U U55A C79U G83A | ≤ -4.2
A16C A73U G88C C95G A98U | ≤ -4.2
C32A | -2.96
C76G A115G A121U | ≤ -4.2
C85G C125U | -3.35
G71A C96A | -3.18
A22U U55A C96U | -0.172
